The record followed here is patent US20250340613A1 (JOINT STOCK COMPANY BIOCAD, published 2025).

The target in test [1] is T1, hIL4R-His, Interleukin-4 receptor subunit alpha (Homo sapiens) aa 27-227 (Homo sapiens, UniProt P24394 27-227).
T1 construct: range 27-227; not shown: His tag as the name implies
T1 sequence (looked up): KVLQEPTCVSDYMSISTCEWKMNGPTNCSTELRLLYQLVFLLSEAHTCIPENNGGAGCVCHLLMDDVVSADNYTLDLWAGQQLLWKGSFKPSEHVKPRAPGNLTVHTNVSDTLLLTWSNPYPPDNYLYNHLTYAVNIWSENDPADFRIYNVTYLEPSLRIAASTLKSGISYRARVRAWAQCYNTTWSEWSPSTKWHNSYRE
The experiment in a line: BLI Octet RED 384; antibody on ProA sensor, antigen 30 ug/ml (1154 nM); response at end of association. As for the experimental part:
(§1) Experimental study of nonspecific binding of bispecific chimeric antibodies to non-target antigens was performed on Forte Bio Octert RED 384. Protein A (ProA) biosensors (ForteBio) were immersed into a solution containing antibodies at a concentration of 10 μg/ml for 150 seconds to immobilize same. The baseline was recorded in a 1×KB solution for 30 seconds. The antibody-loaded sensors were then immersed into wells containing non-target antigens at a concentration of 30 μg/ml for 150 seconds. Complex dissociation was then recorded for 30 seconds.
(§2) The reference sensors went through all the steps as the sensors used to record analyte sensograms did, with the exception of the association step—at the association step, the sensors were immersed in a kinetic buffer solution without analyte (the reference sensor signals were measured in parallel with the recording of the main sensograms). The reference signal was subtracted from the signal received on sensors interacting with the analyte during the processing of sensograms.
(§3) Sensograms were processed using ForteBio Octet Data Analysisn 9.0 software. To report no non-specific interaction, the recorded signal level was checked at the end of the association step (the response parameter).
(In general: Biolayer interferometry detects binding as a change in optical thickness at a sensor tip.)

Test [2] addresses T2, IL5R-His, Interleukin-5 receptor subunit alpha (Homo sapiens) aa 22-342 (Homo sapiens, UniProt Q01344 22-342).
T2 construct: not shown: His tag as the name implies
T2 sequence (looked up): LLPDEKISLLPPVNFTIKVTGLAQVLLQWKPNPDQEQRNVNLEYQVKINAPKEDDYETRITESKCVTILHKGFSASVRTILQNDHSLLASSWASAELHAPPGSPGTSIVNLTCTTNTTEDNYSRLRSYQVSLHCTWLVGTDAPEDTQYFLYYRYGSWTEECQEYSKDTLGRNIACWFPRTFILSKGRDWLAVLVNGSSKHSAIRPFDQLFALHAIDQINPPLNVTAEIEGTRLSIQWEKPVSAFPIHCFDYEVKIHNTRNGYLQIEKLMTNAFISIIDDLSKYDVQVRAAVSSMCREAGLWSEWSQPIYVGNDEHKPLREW
Put plainly: BLI Octet RED 384; antibody on ProA sensor, antigen 30 ug/ml.

For test [3], the target named is T3, hCD38-Avi, ADP-ribosyl cyclase/cyclic ADP-ribose hydrolase 1 (Homo sapiens) aa 43-300 (Homo sapiens, UniProt P28907 43-300).
T3 construct: range 43-300; not shown: Avi tag as the name implies
T3 sequence (looked up): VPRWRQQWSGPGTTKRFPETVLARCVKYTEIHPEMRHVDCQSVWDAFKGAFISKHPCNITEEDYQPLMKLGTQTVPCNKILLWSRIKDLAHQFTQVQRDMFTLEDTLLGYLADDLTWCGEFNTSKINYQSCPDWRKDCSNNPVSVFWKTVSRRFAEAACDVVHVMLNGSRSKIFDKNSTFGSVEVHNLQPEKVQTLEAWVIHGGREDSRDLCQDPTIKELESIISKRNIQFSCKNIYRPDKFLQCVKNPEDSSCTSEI
Described as above.

Test [4] concerns the target T3, hCD38-Avi, ADP-ribosyl cyclase/cyclic …. The experiment in a line: BLI Octet RED 384; antibody on ProA sensor, antigen 30 ug/ml (854.7 nM); response at end of association. The method, then: as §1, §2, §3
In test [5] the target is T4, extracellular domain of the human PD-1 protein (hPD1ex-H6F) (Homo sapiens, UniProt Q15116 21-170).
T4 construct: Molecular weight 20.6 kDa; made in CHO cells; also called hPDlex-H6F; not shown: C-terminal His and FLAG tags
Put plainly: BLI Octet RED 384; antibody on ProA sensor, antigen in solution; 1:1 global fit. The method, then:
The experiments were carried out using a kinetic buffer solution (hereinafter referred to as 1×KB) having the following formulation: 4.3 mM Na₂HPO₄; 136.9 mM NaCl, 1.5 mM KH₂PO₄; 2.7 mM KCl; the volume fraction of the added Tween 20 was 0.1%; the mass fraction of the added BSA (bovine serum albumin) was 0.1%; pH 7.4. Before the measurement, the ProA sensors were regenerated with a solution of 50 mM glycine and hydrochloric acid, pH 1.8 (5 seconds in the regenerating solution, 5 seconds in 1×KB, three repetitions). In the case of the hPD1ex-H6F and hCSF1R_His antigens, the Protein A (ProA) biosensors (ForteBio) were immersed in a solution with antibodies at a concentration of 10 μg/ml for 60 seconds to immobilize same. The baseline was recorded in 1×KB for 60 seconds. The sensors loaded with the antibody were then immersed into wells containing a solution of the target antigen (analyte) in a kinetic buffer for 90 seconds. Measurements were performed for solutions with hPDlex-H6F analyte at concentrations of 2.50 μg/ml (121.4 nM), 1.25 μg/ml (60.7 nM), 0.625 μg/ml (30.35 nM). […] Then we detected complex dissociation in 1×KB for 210 s for hPDlex-H6F, 300 s for hCSF1R_His.
All measurements were carried out at 30° C., orbital mixing speed was 1,000 revolutions per minute.
To obtain numerical values of kinetic constants (kₒₙ is the on/association rate constant, kdis is the dissociation rate constant, KD is the equilibrium dissociation constant or affinity constant), the resulting sensograms were processed according to the 1:1 interaction model using Global Fit (selection of one set of kon, kdis, KD constants to analyze several sensograms of different concentrations) of the ForteBio Octet Data Analysis 9.0 software.

The target of test [6] is T5, C-Avi-His-TEVs-HSA_hBCMA, Tumor necrosis factor receptor superfamily member 17 (Homo sapiens) aa 1-54 (Homo sapiens, UniProt Q02223 1-54).
T5 construct: range 1-54; not shown: Avi, His, TEV site and HSA parts as the name implies
T5 sequence (looked up): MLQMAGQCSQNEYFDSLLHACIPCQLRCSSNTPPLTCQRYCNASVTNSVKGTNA
The experiment in a line: BLI Octet RED 384; antibody on ProA sensor, antigen 30 ug/ml.

A word on the Kd: it is the free concentration of one partner at which half of the binding sites on the other are occupied at equilibrium, for simple one-to-one binding. A higher Kd goes with lower affinity. In general, koff refers to the first-order rate constant of dissociation. Broadly, the kon is the rate constant with which the complex forms. A low value points to slower complex formation.

T4 sequence (Q15116 21-170 limits assumed, form in doubt): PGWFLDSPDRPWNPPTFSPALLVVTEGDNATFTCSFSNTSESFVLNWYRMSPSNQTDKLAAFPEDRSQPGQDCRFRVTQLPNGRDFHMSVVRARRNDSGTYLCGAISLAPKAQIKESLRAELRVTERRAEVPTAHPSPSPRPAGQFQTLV

B1: 02-008, bivalent bispecific chimeric antibody that specifically binds to CD20 and CSF1R (bispecific antibody, human IgG1, kappa, L234A L235A)
heavy 1: EVQLVESGGGLVQPGGSLRLSCAASGYTFTSYNMHWVRQAPGKGLEWVGAIYPGNGDTSYNQKFKGRFTISVDKSKNTLYLQMNSLRAEDTAVYYCARVVYYSNSYWYFDVWGQGTLVTVSSASTKGPSVFPLAPSSKSTSGGTAALGCLVKDYFPEPVTVSWNSGALTSGVHTFPAVLQSSGLYSLSSVVTVPSSSLGTQTYICNVNHKPSNTKVDKRVEPKSCDKTHTCPPCPAPEAAGGPSVFLFPPKPKDTLYITREPEVTCVVVDVSHEDPEVKFNWYVDGVEVHNAKTKPREEQYNSTYRVVSVLTVLHQDWLNGKEYKCKVSNKALPAPIEKTISKAKGQPREPQVCTLPPSRDELTKNQVSLSCAVKGFYPSDIAVEWESNGQPENNYKTTPPVLDSDGSFFLVSKLTVDKSRWQQGNVFSCSVMHEALHNHYTQKSLSLSPGK
light 1: DIQMTQSPSSLSASVGDRVTITCRASSSVSYMHWYQQKPGKAPKPLIYAPSNLASGVPSRFSGSGSGTDFTLTISSLQPEDFATYYCQQWSFNPPTFGQGTKVEIKRTVAAPSVFIFPPSDEQLKSGTASVVCLLNNFYPREAKVQWKVDNALQSGNSQESVTEQDSKDSTYSLSSTLTLSKADYEKHKVYACEVTHQGLSSPVTKSFNRGEC
heavy 2: not shown
light 2: QAGLTQPPSVSVAPGQTARITCGGNNIGSKSVHWYQQKPGQAPVLVVYGDSDRPSGIPERFSGSNSGNTATLTISRVEAGDEADYYCQVWDISSDHVVFGGGTQLTVLQRQVKPEAWLSSGPSPGPGRLQLVCHVSGFYPKPVWVMWMRGEQEQQGTQLGDILPNANWTWYLRATLDVADGEAAGLSCRVKHSSLEGQDIILYWRGSC
notes: Produced in CHO cells
Regarding B1, the “Signal level (nm)” value is -0.002 nm in test [1] and 0.0028 nm in test [4]. In addition, the binding result is reported as “no binding (tested: 757.6 nM)” in test [2] and “no binding (tested: 854.7 nM)” in test [3].

B2: 02-004, bivalent bispecific chimeric antibody that specifically binds to PD1 and CD20 (bispecific antibody, human IgG1, kappa, L234A L235A)
heavy 1: QVQLVQSGGGLVQPGGSLRLSCAASGFTFSSYWMYWVRQVPGKGLEWVSAIDTGGGRTYYADSVKGRFAISRVNAKNTMYLQMNSLRAEDTAVYYCARDEGGGTGWGVLKDWPYGLDAWGQGTLVTVSSASTKGPSVFPLAPSSKSTSGGTAALGCLVKDYFPEPVTVSWNSGALTSGVHTFPAVLQSSGLYSLSSVVTVPSSSLGTQTYICNVNHKPSNTKVDKRVEPKSCDKTHTCPPCPAPEAAGGPSVFLFPPKPKDTLYITREPEVTCVVVDVSHEDPEVKFNWYVDGVEVHNAKTKPREEQYNSTYRVVSVLTVLHQDWLNGKEYKCKVSNKALPAPIEKTISKAKGQPREPQVCTLPPSRDELTKNQVSLSCAVKGFYPSDIAVEWESNGQPENNYKTTPPVLDSDGSFFLVSKLTVDKSRWQQGNVFSCSVMHEALHNHYTQKSLSLSPGK
light 1: QPVLTQPLSVSVALGQTARITCGGNNIGSKNVHWYQQKPGQAPVLVIYRDSNRPSGIPERFSGSNSGNTATLTISRAQAGDEADYYCQVWDSSTAVFGTGTKLTVLQRTVAAPSVFIFPPSDEQLKSGTASVVCLLNNFYPREAKVQWKVDNALQSGNSQESVTEQDSKDSTYSLSSTLTLSKADYEKHKVYACEVTHQGLSSPVTKSFNRGEC
heavy 2: not shown
light 2: DIQMTQSPSSLSASVGDRVTITCRASSSVSYMHWYQQKPGKAPKPLIYAPSNLASGVPSRFSGSGSGTDFTLTISSLQPEDFATYYCQQWSFNPPTFGQGTKVEIKQRQVKPEAWLSSGPSPGPGRLQLVCHVSGFYPKPVWVMWMRGEQEQQGTQLGDILPNANWTWYLRATLDVADGEAAGLSCRVKHSSLEGQDIILYWRGSC
notes: Produced in CHO cells
On to B2, for which the “Signal level (nm)” value amounted to 0.0102 nm in test [1] and 0.004 nm in test [4]. For the same molecule, the affinity in test [5], expressed as Kd, was 3.49 nM. In test [5], this molecule registered a koff of 0.000753 s⁻¹. The kon in test [5] was 216000 M⁻¹ s⁻¹. The binding result in test [2] is on record as “no binding (tested: 757.6 nM)”; in test [3] it was “no binding (tested: 854.7 nM)”; in test [6], “no binding (tested: 391.2 nM)”.

B3: 02-009, bivalent bispecific chimeric antibody that specifically binds to CD20 and CSF1R (bispecific antibody, human IgG1, kappa, L234A L235A)
heavy 1: QVQLVESGGGLVRPGGSLRLSCAASEFTFDDYAMSWVRQAPGKGLEWVSAISWNGGSTNYADSVKGRFTISRDNAKNSLYLQMNSLRAEDTALYYCASTVEVAHRRLYKYLEVWGQGTLVTVSSASTKGPSVFPLAPSSKSTSGGTAALGCLVKDYFPEPVTVSWNSGALTSGVHTFPAVLQSSGLYSLSSVVTVPSSSLGTQTYICNVNHKPSNTKVDKRVEPKSCDKTHTCPPCPAPEAAGGPSVFLFPPKPKDTLYITREPEVTCVVVDVSHEDPEVKFNWYVDGVEVHNAKTKPREEQYNSTYRVVSVLTVLHQDWLNGKEYKCKVSNKALPAPIEKTISKAKGQPREPQVCTLPPSRDELTKNQVSLSCAVKGFYPSDIAVEWESNGQPENNYKTTPPVLDSDGSFFLVSKLTVDKSRWQQGNVFSCSVMHEALHNHYTQKSLSLSPGK
light 1: QAGLTQPPSVSVAPGQTARITCGGNNIGSKSVHWYQQKPGQAPVLVVYGDSDRPSGIPERFSGSNSGNTATLTISRVEAGDEADYYCQVWDISSDHVVFGGGTQLTVLRTVAAPSVFIFPPSDEQLKSGTASVVCLLNNFYPREAKVQWKVDNALQSGNSQESVTEQDSKDSTYSLSSTLTLSKADYEKHKVYACEVTHQGLSSPVTKSFNRGEC
heavy 2: not shown
light 2: DIQMTQSPSSLSASVGDRVTITCRASSSVSYMHWYQQKPGKAPKPLIYAPSNLASGVPSRFSGSGSGTDFTLTISSLQPEDFATYYCQQWSFNPPTFGQGTKVEIKQRQVKPEAWLSSGPSPGPGRLQLVCHVSGFYPKPVWVMWMRGEQEQQGTQLGDILPNANWTWYLRATLDVADGEAAGLSCRVKHSSLEGQDIILYWRGSC
notes: Produced in CHO cells
For B3, the results for the “Signal level (nm)” value in test [1] and in test [4] were -0.0036 nm and -0.0089 nm, respectively.
